From paper PMC5407892

Legend:
[1] = test system: EhDNAligI full-length (DNA ligase I) (Entamoeba histolytica); experiment: fluorescence anisotropy; settings: 3' dideoxy-C at the nick that halts ligation; Anisotropy: 50 mM Tris/HCl pH 7.5, 25 mM NaCl, 5 mM DTT, 10 mM MgCl2, 250 ug/mL BSA, 1 mM ATP, 30 C; footprinting: 50 mM Tris/HCl pH 7.5, 6.6 mM MgCl2, 5 mM …
[2] = test system: EhDNAligI full-length (DNA ligase I);EhPCNA (Entamoeba histolytica;Entamoeba histolytica); experiment: fluorescence anisotropy; settings: 3' dideoxy-C at the nick that halts ligation; Anisotropy: 50 mM Tris/HCl pH 7.5, 25 mM NaCl, 5 mM DTT, 10 mM MgCl2, 250 ug/mL BSA, 1 mM ATP, 30 C; footprinting: 50 mM Tris/HCl pH 7.5, 6.6 mM MgCl2, 5 mM …
[3] = test system: EhDNAligI full-length (DNA ligase I);HsPCNA (Entamoeba histolytica;Homo sapiens); experiment: fluorescence anisotropy; settings: with HsPCNA, 10 mM Mg2+, 1 mM ATP, 3' dideoxy-C at the nick that halts ligation, Anisotropy: 50 mM Tris/HCl pH 7.5, 25 mM NaCl, 5 mM DTT, 10 mM MgCl2, 250 ug/mL BSA, 30 C, footprinting: 50 mM Tris/HCl pH 7.5, 6.6 mM MgCl2, 5 mM …
[4] = test system: EhDNAligI ΔDBD;EhPCNA (Entamoeba histolytica;Entamoeba histolytica); experiment: fluorescence anisotropy; settings: 3' dideoxy-C at the nick that halts ligation; Anisotropy: 50 mM Tris/HCl pH 7.5, 25 mM NaCl, 5 mM DTT, 10 mM MgCl2, 250 ug/mL BSA, 1 mM ATP, 30 C; footprinting: 50 mM Tris/HCl pH 7.5, 6.6 mM MgCl2, 5 mM …
[5] = test system: EhDNAligI ΔPIP (Entamoeba histolytica); experiment: fluorescence anisotropy; settings: 3' dideoxy-C at the nick that halts ligation; Anisotropy: 50 mM Tris/HCl pH 7.5, 25 mM NaCl, 5 mM DTT, 10 mM MgCl2, 250 ug/mL BSA, 1 mM ATP, 30 C; footprinting: 50 mM Tris/HCl pH 7.5, 6.6 mM MgCl2, 5 mM …
[6] = test system: EhDNAligI ΔPIP;EhPCNA (Entamoeba histolytica;Entamoeba histolytica); experiment: fluorescence anisotropy; settings: 3' dideoxy-C at the nick that halts ligation; Anisotropy: 50 mM Tris/HCl pH 7.5, 25 mM NaCl, 5 mM DTT, 10 mM MgCl2, 250 ug/mL BSA, 1 mM ATP, 30 C; footprinting: 50 mM Tris/HCl pH 7.5, 6.6 mM MgCl2, 5 mM …
[7] = biological target: Entamoeba histolytica DNA ligase I, full-length (Entamoeba histolytica)
[8] = biological target: EhDNAligI deletion mutant lacking its first 39 amino acids including the PIP box (Entamoeba histolytica)
[9] = biological target: Entamoeba histolytica DNA ligase I, full-length (Entamoeba histolytica); remark: listed apart in the source
[10] = biological target: EhDNAligI-Phe11Ala:Phe12Ala (Entamoeba histolytica)

Work on “3'-FAM nicked dsDNA (anisotropy substrate)” yielded a Kd [1] of 72.1 nM, a Kd [2] of 6.2 nM and a Kd [3] of 11.3 nM. It also gave a Kd [4] of 95.5 nM, a Kd [5] of 82.1 nM and a Kd [6] of 10.2 nM.

Substance “Entamoeba histolytica proliferating cell nuclear antigen (natural protein)” has an affinity of the ligase for 3′-FAM-labeled nicked DNA by fluorescence anisotropy, with against without EhPCNA [7] of 11 fold, a catalytic efficiency (k cat/K m) of steady-state ligation, with against without EhPCNA [8] of over 18 fold and a catalytic efficiency (k cat/K m) of steady-state ligation, with against without EhPCNA [9] of over 18 fold. It also gave a stimulation of nick-sealing activity (time course) by wild-type EhPCNA [10] of 9.8 fold.

In the case of EhPCNA-V127A-I129A (natural protein), the stimulation of nick-sealing activity (time course) by the EhPCNA mutant [10] is reported as under 2.4 fold.

EhPCNA-Δ254 (natural protein) gave a stimulation of nick-sealing activity (time course) by the EhPCNA mutant [10] of under 2.4 fold.
